The data set has as its system K562 CRISPRi cells. In words: Constant region variant library pooled growth screen, K562. Format: cell-based, human. The following applies: sgRNA constant region variants; activity relative to the original, un-modified constant region cr995. The gist of the method: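 Growth screens in K562 CRISPRi cells were harvested 4-8 days post-selection at >2000× library coverage. Each variant's phenotype was referenced to the unmodified constant region with the same targeting sequence.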

B1: cr852 (nucleic acid)
guide: GTTTAAGAGCTAAGCTGGAAACAGCATAGCAAGTTTAAATAAGGCTAGTCCGTTATCAAGAAAAAATACTGGCACCGAGTCGGTGCT
modifications: listed as DNA, chemistry not fully specified
B1 gave a Mean relative activity of 0.7542.

B2: cr725 (nucleic acid)
guide: GTTTAAGAGCTAAGCTGGAAACAGCATAGCAAATTTAAATAAGGCTAGTCCGTTATCAACTTGAAAAAGTGGCACCGAGTCGGTGCT
modifications: listed as DNA, chemistry not fully specified
B2: the Mean relative activity was 0.7094.

B3: cr742 (nucleic acid)
guide: GTTTAAGAGCTAAGCTGGAAACAGCATAGCAAGTTTAAATAAGGATATTCCGTTATCAACTCGAAAGAGTGGCACCGAGTCGGTGCT
modifications: listed as DNA, chemistry not fully specified
B3 yielded a Mean relative activity of 0.7141.

B4: cr635 (nucleic acid)
guide: GTTTAAGAGCTAAGCTGGAAACAGCATAGCAAGTTTAAATAAGGCTAGTCCGTTATCAACTTGAAAAAGTGGCACCGGGTCGGTGCT
modifications: listed as DNA, chemistry not fully specified
As to B4, the Mean relative activity was determined as 0.7174.

B5: cr763 (nucleic acid)
guide: GTTTAAGAGCTAAGCTGGAAACAGCATAGCAAGTTTAAATAAGGCTAGCCCGTTATCAACTTGAAAAAGTGGCACCGAGTCGGTGCT
modifications: listed as DNA, chemistry not fully specified
As to B5, the Mean relative activity was determined as 0.7264.

B6: cr875 (nucleic acid)
guide: GTTTAAGAGCTAAGCTGGAAACAGCATAGCAAGTTTAAATAAGGCTAGTCCGTTATCACCTGGAAACAGGGGCACCCAGTGGGTGCT
modifications: listed as DNA, chemistry not fully specified
Turning to B6, the Mean relative activity is 0.743.

B7: cr575 (nucleic acid)
guide: GTTTAAGAGCTAAGCTGGAAACAGCATAGCAAGTTTAAATAAGGCTAGTCCGTTATCAACTTGAAAAAGTGGCACGGAGTCGGTGCT
modifications: listed as DNA, chemistry not fully specified
With B7, the Mean relative activity came out at 0.6955.

B8: cr695 (nucleic acid)
guide: GTTTAAGAGCTAAGCTGGAAACAGCATAGCAAGTTTAAATAAGGCTAGTCCGATGTCAACTTGTAAAAGTGGCACCGAGTCGGTGCT
modifications: listed as DNA, chemistry not fully specified
Molecule B8 returned a Mean relative activity of 0.751.

B9: cr867 (nucleic acid)
guide: GTTTAAGAGCTAAGCTGGAAACAGCATAGCAAGTTTAAATAAGGCTAGTTCGTTATCAACTTGAAAAAGTGGCACCGAGTCGGTGCT
modifications: listed as DNA, chemistry not fully specified
For the molecule B9, the Mean relative activity amounted to 0.7502.

B10: cr522 (nucleic acid)
guide: GTTTAAGAGCTAAGCTGGAAACAGCATTGCAAGTTTAAATAAGGCTAGTCCGTTGTCAACTTGAAAAAGTGGCACCGAGCCGGTGCT
modifications: listed as DNA, chemistry not fully specified
B10 returned a Mean relative activity of 0.7084.

B11: cr015 (nucleic acid)
guide: GTTTACGAGCTAAGCTGGAAACAGCATAGCAAGTTTAAATAAGGCTAGTCCGTTATCAACTTGAAAAAGTGGCACCGAGTCGGTGCT
modifications: listed as DNA, chemistry not fully specified
On to B11, for which the Mean relative activity amounted to 0.7022.

B12: cr887 (nucleic acid)
guide: GTTTAAGAGCTAAGCTGGAAACAGCATAGCCAGTTTAAATAAGGCTCGTCCGTTATCAACTTCAAAAAGTGGCACCGAGTCGGTGCT
modifications: listed as DNA, chemistry not fully specified
In the case of B12, the Mean relative activity is 0.7504.

B13: cr117 (nucleic acid)
guide: GTTTAAGAGCTAAGCTGGAAACAGCATAGCAAGTTTAAATAAGGCTAGTCCGTTATCAACTTGGAAAAGTGGCACCGGGTCGGTGCT
modifications: listed as DNA, chemistry not fully specified
On to B13, for which the Mean relative activity worked out at 0.6966.

B14: cr505 (nucleic acid)
guide: GTTTAAGAGCTAAGCTGGAAACAGCATTGCAAGTTTAAATAGGGCTAGTCCGTTATCAACTTGAAAAAGTGGCACCGATTCGGTGCT
modifications: listed as DNA, chemistry not fully specified
B14 showed a Mean relative activity of 0.7459.

B15: cr439 (nucleic acid)
guide: GTTTAAGAGCTAAGCAGGAAACAGCATAGCAAGTTTAAATAAGGCTAGTCCGTTATCAACTTGAAAAAGTGGCACCGAGTCGGTGCT
modifications: listed as DNA, chemistry not fully specified
In the case of B15, the Mean relative activity is recorded as 0.7506.

B16: cr278 (nucleic acid)
guide: GTTTAAGAGCTAAGCTGGAAACAGCATAGCAAGTTTAAATAAGGCTAGCCCGTTATCAACTTGAAAAAGTGGCACCGAATCGGTGCT
modifications: listed as DNA, chemistry not fully specified
In the case of B16, the Mean relative activity came to 0.7368.

B17: cr723 (nucleic acid)
guide: GTTTAAGAGCTAAGCTGGAAACAGCATAGCAAGTTTAAATAAGGCTAGTCCGTTATCAACCTGAAAAGGTGGCAGCGAGTCGCTGCT
modifications: listed as DNA, chemistry not fully specified
As to B17, the Mean relative activity is recorded as 1.054.

B18: cr890 (nucleic acid)
guide: GTTTAAGAGCTAAGCTGGAAACAGCATAGCAAGTTTAAATAAGGCTAGTCCGTTATCAACTTGAAAAAGTGGCACCGCGTCGGTGCC
modifications: listed as DNA, chemistry not fully specified
B18 came in with a Mean relative activity of 0.7513.

B19: cr426 (nucleic acid)
guide: GTTTAAGAGCTAAGCTGGAAACAGCATAGCAAATTTAAATAAGGCTAGTCCGCTATCAACTTGAAAAAGTGGCACCGAGTCGGTGCT
modifications: listed as DNA, chemistry not fully specified
Consider B19, for which the Mean relative activity was 0.7265.

B20: cr594 (nucleic acid)
guide: GTTTAAGAGCTAAGCTGGAAACAGCATTGCAAGTTTAAATAGGGCTAGTCCGCTATCAACTTGAAAAAGTGGCACCGAGTCGGTGCT
modifications: listed as DNA, chemistry not fully specified
B20 registered a Mean relative activity of 0.7395.

B21: cr168 (nucleic acid)
guide: GTTTAAGAGCTAAGCTGGAAACAGCATAGCAAGTTTAAATAAGACTAGTTCGTTATCAAATTGAAAAATTGGCACCGAGTCGGTGCT
modifications: listed as DNA, chemistry not fully specified
As for B21, the Mean relative activity turned out to be 0.7238.

B22: cr474 (nucleic acid)
guide: GTTTAAGAGCTAAGCTGGAAACAGCATAGCAAGTTTAAATAAGGCTAGTCCGTTATCAACTTGAAAAAGTGGCACCTAGTCGGTGCT
modifications: listed as DNA, chemistry not fully specified
For B22, the Mean relative activity was found to be 0.7254.

B23: cr539 (nucleic acid)
guide: GTTTAAGAGCTAAGCTGGAAACAGCATAGCAAGTTTAAATAAGTCTAGTACGTTATCAATTGGAAACAATGGCACCGAGTCGGTGCT
modifications: listed as DNA, chemistry not fully specified
B23: the Mean relative activity is on record as 0.7135.

B24: cr779 (nucleic acid)
guide: GTTTAAGAGCTAAGCTGGAAACAGCATAGCAAGTTTAAATAAGGCTAGTCCGTTATCAAATTGAAAAATTGGTAACGAGTCGTTACT
modifications: listed as DNA, chemistry not fully specified
Take B24: the Mean relative activity is reported as 0.7512.

B25: cr457 (nucleic acid)
guide: GTTTAAGAGCTAAGCTGGAAACAGCATAGCAAGTTTAAATAAGGCTAGTCCGTTATCAACTTGAAAAAGTGGCACCGAGTCGGTTCT
modifications: listed as DNA, chemistry not fully specified
In the case of B25, the Mean relative activity is 0.7254.

B26: cr555 (nucleic acid)
guide: GTTTAAGAGCTAAGCTGGAAACAGCATAGCAAGTTTAAATAAGTCTAGTACGTTATCAACTTGAAAAAGTGGCACCGAGTCGGTGCT
modifications: listed as DNA, chemistry not fully specified
B26 had a Mean relative activity of 0.719.

B27: cr341 (nucleic acid)
guide: GTTTAAGAGCTAAGCTGGAAACAGCATAGCAAGTTTAAATAAGTCTAGTACGTTATCAACTTGAAAAAGTGCTACCGAGTCGGTAGT
modifications: listed as DNA, chemistry not fully specified
Regarding B27, the Mean relative activity was 0.7299.

B28: cr568 (nucleic acid)
guide: GTTTAAGAGCTAAGCTGGAAACAGCATAGCAAGTTTAAATAAGGCTAGTCCGTTATCATCGTGAAAACGAGGCAACGAGTCGTTGCT
modifications: listed as DNA, chemistry not fully specified
The molecule B28 returned a Mean relative activity of 1.054.

B29: cr645 (nucleic acid)
guide: GTTTAAGAGCTAAGCTGGAAACAGCATAGCAAGTTTAAATAAGCCTAGTGCGTTATCAACGTGAAAACGTGGCACGGAGTCCGTGCT
modifications: listed as DNA, chemistry not fully specified
For B29, the Mean relative activity is listed as 0.7179.

Source of the values: US20220259593A1, “CONTROL OF MAMMALIAN GENE DOSAGE USING CRISPR” (The Regents of the University of California, priority 2019, published 2022).
